Assay: soluble on expression in E. coli; label from the status in PepcDB or PDB records

Question: Which “soluble on expression in E. coli” value does the source give for “MAHHHHHHMADLYDVLGILHDAEDDAIAKAYRRHSMAVNPQCNPDHPDPAALEKQFKHVSQAYVVLSNPKARGIYDLYGEEGVRHGGTGAQGIPGGIDLDAIDPYAVFRSFFGVDNPFQVIGEINGLRNNRHNFFSSTAVIPKSLVKAPSIEVQLPVTLEDVYYGAVRRASWKCSFVRQGNETVVEEFFELRVPKGAHAGDKFVVDGKGDWEEGRARGDVVVVLELLPHERFRREGDDLVVRVPITLREALCGVTLTVQTMEGTDVAVLIDEIVHPKYSRRVVGQGLPRNDEPSNPRGDLIVECDTTFPGFLTLEQKSELSRILDAK” here?
Answer: not soluble

Question: With “MAHHHHHHMAEPNASGFRVIQILENYGVASSDIKKLMECGFYTVESAAYAPKKAILAVKGISENKAEKIMAECAKLVPMGFTSAVAYHEARKEIIMVTTGSREVDKLLGGGIETGSITELFGEFRTGKTQLCHTLCVTCQLPISQGGAEGMALYIDTEGTFRPERLVAVAERYKLDPEDVLANVACARAFNTDHQQQLLLQASAMMAENRFALIIVDSATALYRTDYSGRNELAARQMHLGKFLRSLHNLAEEYGVAVVVTNQVVANVDGSAQMFQADSKKPIGGHIMAHASTTRLSLRKGRGEQRIIKVYDSPCLAEAEAIFGIYDDGVGDARD” as the sequence, how does the “soluble on expression in E. coli” value read?
Answer: not soluble

Question: Which “soluble on expression in E. coli” value does the source give for “MAHHHHHHMAGSIRYFIDPRGALSPCAPAESSTPRAGGTKVPRTAEAKSSPNSPPELSSAVPLDGLCRAYEAADGRSGSAFLQVYSVGAHGLLSPEAKAVITGCTMAALRSRLSHLLGLLPHERLNGADSALGMSAVAVLNRYCRATAALPPPSPSAMQPRCGTDTDGGGMRGRGWVVTWALELVLCVAASRIVAGPPLATACPPLCVSDCGDVIMASLHFGLGVRLQRDAVAHHDERTIASSTPLTSAAERCPRYAALSVQLTECTPASSHPLDVRCAVDVTRVIYVNHIRSAQAHAEDGTDAFQRLARCEGGVSDPLSVATARDAWAEALQSYQASAIASQGGVLFVLTHDLSVQSGPAALLPLTVREERSRSHAAEMSHDVAFPPALRDHVLASVRVRSAPVYFNHILLCQAWSSDDVVAEAHARHWAEKLANDGALAPARVAVEWRASLLVSRAKGGAAVTSDAGGSQTLAPTPLQWVLYTARRQLVVAVANRSQVVLTGRRRGLDRTAAEATTKAAQFSPSALRALAEQCVKALPVARGLLGWHCPWPVPSCLQNTDTCTAIPSAAAVEEVLWTLRMLGKLRWRAAQLYEAAGDSAEQHRQLRALRADVQRWSSRRRARTLAADGTTLACEATAWTPTVEDVVCHVDDGDWGALTKELSSMLPPA” here?
Answer: not soluble

Question: With “MAHHHHHHMANISPNSDGDSFVGADTAKQLSDIQKKLNDLKQRREELEEQRRRILGASDQSSSRPRSLRGPTQNRRRHSQPSQRTLPLRPPRPPISDHSIRIPNEKERQQTAQRTPYLEMKESMRRSWSRDSSLVMGSFLMEDNPRARTFTRERRFIPPPECNGIYFLGTEMELMIRNKNVAPSQRSGRRDNTPYRWNDIIDGVTPGPGAYTPLFSKVSKPSRRAQLF” as the sequence, how does the “soluble on expression in E. coli” value read?
Answer: not soluble

Question: For “MAHHHHHHMAPVIPKSSNEGKDYSVASGSVDTPVLDQLVGYYVNIQSRKMYYKDFLRIEHQAVRWAFADIRKNSEALAHGLLQTGLRPGQRVLAIQPCNCETFVLQLACAKIGALLAVVPHHNISADKLRFYLNEFQPHHLIAREWIVVPEVKQGVLVERNMHFWDMIYNVIPELGLSYPGQRFQWVHSQEFFFLKKVVITDHNMNLLGVTPMRKMLVWGPFSYYEQRLRRLSALLHPDDPILALEDPHPALEDKLHITYSHRNCINAGFLFGNLMGLKAESRFGVMPNHHVDPVGAIVAPYAALTTGAVLVHIHSDMFTDDHAINGIEKLCVEEVVGMLGKKSDFDLLLRHAGNFDADQYEHLKWVVLFEDASEPTVGDEYLQKLAKELGLEDVFVFRGPLESAYMVMWRSLKRARWEMVPHVEAKVVGDRGTADARILAANTRGNLKLKGPHISAGYYNNAGLLTELVDERGFCSTSREAVMDERGQLTLHGTQLY”, which “soluble on expression in E. coli” value is on record?
Answer: not soluble

Question: For “MAHHHHHHMAQASGCELMDFVSVLPVPPQTERRRGVLRFVGSTDFAPGLWMGIELFGTIGRNDGSVMGKSYFSCPAGQGVFVRPELVVPYMSEGEGPSGTVRKGDEFLAVVEPLRADLTRMQEELQQREAALRDAREELRNVMALHDAKSVELEREREEKSRMIMLTMTACRNNVTATTQTDEDKAVEVKDLEIHRLQQQCADLRDLCELQEDEIHRQREHADDLAQIVENLRREHEEERVRMVEKIRSLEEEITQRQKATAEDSAKADVEDMHLHAFQQQQEKEALRILKERYEQLYAERESERHEQEAKWKRATAEYEEALTQQREYKNRLLNEIRQLQHEIKDMRHSRERERVLQVPLSTLERDEYESQIYGLQWELMGVHEEMFSKRYDHFLAPVSSWNLPADVMRALSEEIMSLERVLPFTTPEKCQQSRMVLFQMHPRDAEGGTIAAAPL”, which “soluble on expression in E. coli” value is on record?
Answer: not soluble

Question: For “MAHHHHHHMARLKVLNVAEKPSVASSIAEILSKGRPNKIKSCSKYNPVFTFDYKIKNDIWYMYVTSVTGHLTDQKFDDRYKNWHNTDPQELFDAEITVYVEKDKKNIENNLKKYSKECNMLILWLDCDREGEHICFEVINACRITNRKLIIHRAQFSAVTEKDIIHAINNLKEPNKNLAYSVDVRREIDLRMGSIFTRFMTIRYIELVKHETSIISYGPCQFPTLGFVVNRYLDIKNFKNEYYWSIKMKYVYNNDEINPMDDENNYDDHDDEQMDSDSDESDSYYTNNDDSNNYSDETDDYYGD”, which “soluble on expression in E. coli” value is on record?
Answer: not soluble

Question: With “MAHHHHHHMASSALDEMKEQMLRRWKEDQKKIDDLRKKHGHEKLCDATIDAVYGGMRGITGLVYEPSLLDPAEGIRFRGLTILECQEMLPKAPGGKEPLPEAMFWLLMTGEVPTEEQVRGLNAELHRRADPEAIAAAQKAIAALPRNAHPMTAFSVGVLALQSYSKFAAAYAAGKSNKKTYWEYALEDSLDMLARTPAVVAMICNRETKGQVELAAPSNSDLDWAANFAKMMGYQDEEFWECMRLYLSVHADHEGGNVSAHTTTLVASALSDPYLAFSAGLNGLAGPLHGLANQEVLNYLLSMQERVKADGVNMHDEAALEKALSNYTWELLNSGQVVPGYGHAVLRKVDPRYTCLRNFCLRHKFDDDLFKLVNTIYLIMPGILKEHGKTKNPYPNVDAHSGVLLQHYGMTNQNCYPVLFGLSRQMGVLAGVVWDRLQGRPLERPKSITTEMLAKKYLCNSL” as the sequence, how does the “soluble on expression in E. coli” value read?
Answer: not soluble

Question: With “MAHHHHHHMAVSSARESVTDLLSGREDVRTVSSSTMAQESTTIKTGELGEDGGGDGVISDRSNVLARVFEELLDAEVSMNPAKLREASRAGIPSLYRSTVYRYLLGITFVDHSREMSLERMQEKDFEQLLTAFGRIVASDGTGQRPSVKGRIMQPLASPRLHDSETIPLITRDESQFANGYRCSDRSFSVGYAAWIKFRANLRYLPRFVGNPERRQRMECAWQALHVTSSGATPDEVENLFELALVFESVHGTARDIYFSTSSLYYLLTHHGNVLQNAQCLQRMCGTFLMLFRATNFDLYRHFVAESVTAVEWLPGMLKTLLAGRLHEEDLLRLWDVYLADALEYLGFPLHPYVCLAILEEMTEVLLECEKSGIIERLRHLPRIEAGSIIQKAISLKESVFSKDLL” as the sequence, how does the “soluble on expression in E. coli” value read?
Answer: not soluble

Question: For “MAHHHHHHMCAKESCRAVNQGIRKECESCGTEKPQLLGWKCEGCSTINHAGVRKCKKCADASDKSKEFWMCAVCHENNRVDEIEDNSRCGFCGYDMAPHSVAEEEILRRATEKTVMLQQQQEHFDSVSYTEADEQFTNPLEGAEALDPSLRAIHPGSEAPITGRVLKLPAVAPFVAGGVPETRHSPLHQRRKVHPALQTVLEGATAPEGPPGFDWMCRDSSCGHINPGDEESCLKCGSHITPAEWEVPVMRVLEPPGTLALLLLQKPHSGLLDLQCVSGDDEHL”, which “soluble on expression in E. coli” value is on record?
Answer: not soluble

Question: For “MAHHHHHHMCPPKNENERGTEGQPAKNTESADTLKRKLSELYAEEGCQYGENGQPEDTSHLVSSGSAGKKRETATEKRNPEEVREKENAHEKKEDNEVDQNGQTSTSKTNTKKHRSSTDEPPNRRKKKKRKKKFNDNGEVTKPSKQMIRINYLLQASFLMNELNPNISREYIKTMRKLSNKFLIKHDKKFKKLFCKKCNSVLIPSATCKVSVNPLNLRKKKKNKNEEVSSNLNGKLRDEFLVSYRCNYCQHDTKFVYENGLTAPRANGTEAV”, which “soluble on expression in E. coli” value is on record?
Answer: soluble

Question: Which “soluble on expression in E. coli” value does the source give for “MAHHHHHHMCTTNLENLVVDSVTRTGNNNASNTFLGDVLLASNKESQNITQYHPGVSSKDQPDVCGDVRYSFADIADIIRGTDVWSKQSQQMLLQGYLEQTFGKIKDKFKGTEKYDSDSHHPQIL” here?
Answer: not soluble

Question: With “MAHHHHHHMDPKEFVQRFPKSALSAKLVLSLEITEQRDFVVSLIDDAVYCDSWEAYFDFAERNNVAITEDVALAAVQAVGLDPLSAPLWVRAAACCESVESRKSLYEFGLSVPLHGWQRLFEEYRRCTDGHEDDHVLSETECWCVSNVLTAEKWPDRYAKLDTDTEAENVRQAWLELFACMLAGLASTAIARDLQLRRMELAMRQMCTQLPGDDSCWYQLALFQLCILEDAEAARKTVACGIAAAGSSFALENIASVADGVVGVSDSSGTSSADVLSATKALMQQRRAAEELALDGVTKDRVRALRSVGKAAAQQGLGDWKIFSQWRCAEDMAAHDTKMAAKVLENGMICCSHSPADALLLGSEAAQYHLLQRHEREALGYAEQQIEQQAELHHRGKILASWNSLVRIENLLGLSFSKAAKRRAELFPQNRISTFMENCRVGDYLPCDKSTFQWARFVEDYQVDKASVEETPFHGIAPPRNEAVAVKRLQQVECETPDDSQWEPFVPPLSCLPSREEENPDDVTGVRELRGKLVYRVKMDARTAARCQREKATRQRSMTGEKAVERGGALGALVRRVRPVNLTVGQTKRLQSVSADWVVHVLTVSELDLERTLKERAERQESHDMSV” as the sequence, how does the “soluble on expression in E. coli” value read?
Answer: not soluble

Question: Which “soluble on expression in E. coli” value does the source give for “MAHHHHHHMDPNAFLSSFDAIVTLSNTEGPRHNVLEPKFTAREQMQALRESVRNAYKESPSQTAMSQICRCYVFIGFNMLETDEETEGVSEICKAYTLTLFGSKKELLDDVVDIAAHPLEEILRNEVPFVTAEKEYAFVTEFMRVHNALGFYFSNRDVELRINDAKQVLIVAEKAYRAWNDWFHQSFPGHCLMKDIPVLENGTLDRASISPDALPIYIVRFEMDTAFTSTLFFLAQVYTACKMTALASRYCHHTLYHQLLNKMEFSKKDWATNALHLSAFYSSCFDYGKALHCLRAGEYIMPEENANEETLGIVAWAFGKFYLHRLHYYSEVRRNCAPRGHFPDEFEGWWVDFPLDIPPPQPLPAIETFEDARKCFKEANVWFNKALNYYVYDGCCTEHIDIKKDIAQLYAALIPFEENRDRIIAMHQRRIALIELFPSDLNFNAYPTLVRQLLFDLGGMHEEMLEVYIQQKNSPMEGEKPLSDKKINAFADKVQGFYRRFCDTWKEPQTNKIPETIDIDSRLPFFRSLMRLAHLQMKRFFKDPKEEYDNISASIVMFEKAIAFASSNPMNEEADAEVQLAREMATLLPVRQKDLWRVYHNAV” here?
Answer: not soluble

Question: With “MAHHHHHHMDQSRHKRTARHQYLGARTKITLKLQLTRIQHRGFHVHVHSRTTPLDRQAHEDALQQRDVECLLWRVKMQQIQQNRSGEGHVDKAQTTHTGIRIVHGADPATVNAAGLRVLRIGERERPKTVRNRSWQTRVTVAASSTHALTAADAARPRSEAHGVHSARATVQHRHGRPNIEVDSVIRHRRAS” as the sequence, how does the “soluble on expression in E. coli” value read?
Answer: not soluble

Question: For “MAHHHHHHMDTHALLALAQSAVDAGNVKAACEFYEVALAQSPNNDEVLEAYAEVMIHYAQDIPRAQQMLRHAIDINPNQGYVKYLNLAQLCEAEEALKCYEKAYEIASLMLHGCRKKKMKKTLQETMATMCCAVAELYLTDLCFAENAEQQCEQAVNRALELNSDLVEPHQLQASLRLSQCRPDEALQSLRRAVDATHRLGEEHQPTYESKIELGRLLMQVDPAEAFQFLLEVLQYGDNNPYVWFLLGESARMRRRYADAARLLRRARVMLVVSGGDATALSEVDAAINVLVQEMGGPEEAAQVKDLDHPYPLELLEAEDDEGAEEDGEDDLEEPEREPCDDEDDA”, which “soluble on expression in E. coli” value is on record?
Answer: not soluble

— the DeepSol protein solubility set
